Test results published in the supplement of paper PMC10724198.
± gives the standard deviation of the averaged measurements.

What was measured:
Saccharomyces cerevisiae [1] = experiment: protein stability index of tFT-peptide fusion (C-terminal peptide) (PSI (0-1 scale)); higher = more stable (slower turnover); conditions: genetic background: wild type; temperature: 30 C
Saccharomyces cerevisiae [2] = experiment: as above
Description: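 MPS profiling in S. cerevisiae of the tFT-X12 degron library: putative degron peptides plus stable controls, 12 aa, fused to the C-terminus of a sfGFP-mCherry timer. Cells are FACS-sorted into 8 mCherry/sfGFP bins and deep-sequenced. PSI runs from 0 (unstable) to 1 (stable). Backgrounds are wild type, das1Δ and doa10Δ at 30 °C, and wild type, das1Δ, cdc34-1 and cdc53-1 at 37 °C; 2-3 technical replicates each.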

[3] = genetic background: cdc34-1, temperature: 37 C
[4] = genetic background: cdc53-1, temperature: 37 C
[5] = genetic background: das1 deletion, temperature: 30 C
[6] = genetic background: das1 deletion, temperature: 37 C
[7] = genetic background: doa10 deletion, temperature: 30 C
[8] = genetic background: wild type, temperature: 30 C
[9] = genetic background: wild type, temperature: 37 C
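Note: PSI is a weighted mean of sequencing reads over stability bins, variants kept only with over 10 reads, mCherry proximal and sfGFP distal, peptide attached via GGGS linker.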

Sequence	protein stability index (Saccharomyces cerevisiae [1])	protein stability index (Saccharomyces cerevisiae [2]; [3])	protein stability index (Saccharomyces cerevisiae [2]; [4])	protein stability index (Saccharomyces cerevisiae [2]; [5])	protein stability index (Saccharomyces cerevisiae [2]; [6])	protein stability index (Saccharomyces cerevisiae [2]; [7])	protein stability index (Saccharomyces cerevisiae [2]; [8])	protein stability index (Saccharomyces cerevisiae [2]; [9])
DYRCWCAILVSS	0.2611 ± 0.00049	0.162 ± 0.0075	0.187 ± 0.0085	0.207 ± 0.029	0.3345 ± 0.0016	0.146 ± 0.013	0.172 ± 0.032	0.246 ± 0.013
DYSVIPSLALLP	0.218 ± 0.021	0.692 ± 0.013	0.73118 ± 3.3e-05	0.657 ± 0.028	0.733 ± 0.015	0.669 ± 0.022	0.673 ± 0.0088	0.714 ± 0.02
ECLRLTTKKKIN	0.173 ± 0.011	0.581 ± 0.079	0.733 ± 0.069	0.657 ± 0.055	0.704 ± 0.032	0.133 ± 0.0031	0.146 ± 0.039	0.197 ± 0.088
EDRKRNKERRWT	0.4256 ± 0.0024	0.679 ± 0.024	0.702 ± 0.013	0.642 ± 0.015	0.716 ± 0.0076	0.305 ± 0.0042	0.303 ± 0.027	0.57 ± 0.01
EFWWPFDRRGVI	0.748 ± 0.011	0.76 ± 0.037	0.807 ± 0.011	0.7244 ± 0.0059	0.83 ± 0.015	0.721 ± 0.029	0.7117 ± 0.0043	0.822 ± 0.012
EKKRERQKGEME	0.579 ± 0.12	0.656 ± 0.055	0.7542 ± 0.0053	0.6109 ± 0.0056	0.72 ± 0.027	0.627 ± 0.026	0.635 ± 0.014	0.717 ± 0.012
ETQKEKRENAKP	0.713 ± 0.0091	0.649 ± 0.028	0.70222 ± 0.00044	0.646 ± 0.032	0.71 ± 0.035	0.6492 ± 0.0039	0.623 ± 0.016	0.677 ± 0.024
EVGFHRRWVALS	0.189 ± 0.0082	0.612 ± 0.052	0.7235 ± 0.007	0.65 ± 0.015	0.737 ± 0.019	0.114 ± 0.02	0.141 ± 0.016	0.275 ± 0.053
EWGLGEIVVKVA	0.259 ± 0.057	0.563 ± 0.025	0.654 ± 0.013	0.534 ± 0.011	0.684 ± 0.015	0.138 ± 0.0032	0.162 ± 0.013	0.2153 ± 0.0017
FAFPTPPPLLFD	0.751 ± 0.027	0.68 ± 0.047	0.7511 ± 0.00095	0.693 ± 0.035	0.735 ± 0.0083	0.667 ± 0.0073	0.676 ± 0.0095	0.736 ± 0.013
FCGWLGVYLVKG	0.494 ± 0.076	0.5909 ± 0.001	0.6581 ± 0.00083	0.484 ± 0.026	0.656 ± 0.0023	0.481 ± 0.035	0.49 ± 0.015	0.668 ± 0.062
FCSFSWFLFLRS	0.405 ± 0.034	0.211 ± 0.0051	0.123 ± 0.023	0.329 ± 0.02	0.359 ± 0.0085	0.599 ± 0.01	0.337 ± 0.016	0.312 ± 0.022
FCVLLFCAVSDL	0.317 ± 0.03	0.289 ± 0.032	0.383 ± 0.03	0.239 ± 0.036	0.4433 ± 0.0013	0.212 ± 0.0092	0.24 ± 0.036	0.398 ± 0.0074
FCVVFFLSLVFL	0.495 ± 0.046	0.457 ± 0.01	0.491 ± 0.03	0.391 ± 0.027	0.511 ± 0.013	0.4225 ± 0.0026	0.386 ± 0.0062	0.49 ± 0.0029
FFDLSLYSLCLC	0.378 ± 0.064	0.623 ± 0.019	0.69 ± 0.059	0.466 ± 0.013	0.6476 ± 0.0029	0.229 ± 0.009	0.271 ± 0.029	0.4649 ± 0.0011
FFFFPVYFIFVV	0.311 ± 0.0065	0.272 ± 0.014	0.288 ± 0.05	0.259 ± 0.02	0.409 ± 0.013	0.259 ± 0.01	0.232 ± 0.016	0.32 ± 0.0059
FFFFSMFSFFIP	0.477 ± 0.054	0.503 ± 0.056	0.576 ± 0.0068	0.485 ± 0.017	0.564 ± 0.013	0.438 ± 0.013	0.466 ± 0.031	0.531 ± 0.0034
FFFVLVSGWWGV	0.36 ± 0.041	0.181 ± 0.0054	0.344 ± 0.059	0.237 ± 0.027	0.472 ± 0.044	0.205 ± 0.022	0.221 ± 0.021	0.374 ± 0.013
FFLDRLVIRLIA	0.105 ± 0.052	0.1487 ± 0.00028	0.173 ± 0.0047	0.248 ± 0.029	0.383 ± 0.0071	0.0576 ± 0.024	0.0715 ± 0.011	0.0735 ± 0.014
